± gives the uncertainty stated by the source.
B1: Cytoplasmic polyadenylation element-binding protein 2, residues 513 to 575; numbered along this chain, Q7Z5Q1 (parent)
chain: KRVEVKPYVLDDQMCDECQGARCGGKFAPFFCANVTCLQYYCEFCWANIHSRAGREFHKPLVK

Variants of: B1
Assay: abundance fitness (aPCA) (normalised: wild type 0, dead -1); higher = more abundant; growth selection in yeast, the domain comes from the species named
Details: Homo sapiens

Variant	abundance fitness
A21P	-0.52 ± 0.079
A21F	-0.23 ± 0.081
A21E	-0.037 ± 0.063
A21I	-0.217 ± 0.079
Q39L	-0.175 ± 0.047
Q39N	-0.103 ± 0.081
Q39D	-0.631 ± 0.087
C42P	-0.826 ± 0.08
C42V	-0.849 ± 0.11
C42T	-1.11 ± 0.093
C42D	-0.558 ± 0.094
C42Q	-1.21 ± 0.22
C42M	-1.22 ± 0.24
I49C	-0.443 ± 0.12
I49N	-0.221 ± 0.058
I49F	-0.044 ± 0.055
I49E	-0.461 ± 0.23
I49W	-0.268 ± 0.096
V3D	0.107 ± 0.071
V3Q	0.11 ± 0.056
V3M	-0.091 ± 0.077
V3S	0.013 ± 0.042
V3P	-0.028 ± 0.056
V3L	-0.156 ± 0.043

Variant	abundance fitness
V3T	0.167 ± 0.063
V3G	-0.1 ± 0.033
V3E	0.084 ± 0.043
V3A	0.059 ± 0.055
V3F	-0.197 ± 0.08
K59E	0.168 ± 0.055
K59T	-0.041 ± 0.059
K59Y	-0.351 ± 0.092
K59N	-0.248 ± 0.075
K59R	0.024 ± 0.038
K59V	-0.2 ± 0.05
C37P	-0.496 ± 0.064
C37S	-0.54 ± 0.059
C37W	-0.952 ± 0.092
C37D	-0.766 ± 0.1
C37Q	-1.02 ± 0.13
C37R	-0.55 ± 0.057
K63W	-0.415 ± 0.09
K63E	0.014 ± 0.082
K63M	-0.111 ± 0.14
K63Y	-0.408 ± 0.14
R22A	-0.126 ± 0.045
R22N	-0.032 ± 0.14
R22P	-0.504 ± 0.076

Variant	abundance fitness
R22T	-0.283 ± 0.055
R22V	-0.343 ± 0.05
R22K	0.006 ± 0.06
R22Q	0.1 ± 0.073
R22G	-0.303 ± 0.054
R2T	-0.115 ± 0.049
R2D	0.001 ± 0.14
R2E	0.067 ± 0.083
R2H	-0.319 ± 0.088
R2C	-0.229 ± 0.092
R2P	0.015 ± 0.068
R2I	0.048 ± 0.065
F27C	0.054 ± 0.057
F27D	-0.125 ± 0.082
F27E	-0.09 ± 0.051
N34W	-0.2 ± 0.072
N34M	-0.44 ± 0.05
N34F	-0.363 ± 0.062
N34T	-0.175 ± 0.048
N34C	-0.354 ± 0.082
N34I	-0.731 ± 0.11
N34H	-0.438 ± 0.13
N34D	-0.07 ± 0.089
N34S	-0.095 ± 0.04

Variant	abundance fitness
M14L	-0.167 ± 0.042
M14E	-0.073 ± 0.07
M14P	-0.007 ± 0.05
M14Y	0.082 ± 0.077
M14F	-0.067 ± 0.072
M14H	-0.33 ± 0.16
H58D	-0.704 ± 0.086
H58R	-0.763 ± 0.049
H58Y	-0.822 ± 0.11
H58V	-0.704 ± 0.062
F30D	-0.318 ± 0.087
F30T	-0.188 ± 0.055
F30C	-0.322 ± 0.061
E56N	-0.111 ± 0.088
E56S	-0.128 ± 0.044
E56Y	-0.271 ± 0.091
E56C	-0.195 ± 0.056
E56V	-0.373 ± 0.05
H50R	-0.775 ± 0.064
H50A	-0.674 ± 0.07
H50G	-0.637 ± 0.05
H50K	-0.673 ± 0.082
H50E	-0.546 ± 0.066
F31R	-0.324 ± 0.039

Variant	abundance fitness
F31S	-0.591 ± 0.053
F31E	-0.291 ± 0.079
F31T	-0.57 ± 0.075
E4A	-0.15 ± 0.039
E4L	-0.322 ± 0.039
E4F	-0.208 ± 0.061
E4M	-0.242 ± 0.054
G25W	-0.075 ± 0.053
G25E	-0.195 ± 0.066
G25V	-0.323 ± 0.044
G25A	-0.147 ± 0.049
G25L	-0.207 ± 0.039
G25D	-0.082 ± 0.059
G25N	-0.025 ± 0.085
G25I	-0.538 ± 0.087
G25M	-0.127 ± 0.061
C15Y	-0.519 ± 0.12
C15P	-0.454 ± 0.084
C15G	-0.531 ± 0.054
C15D	-0.691 ± 0.17
L10Y	-0.193 ± 0.12
L10N	0.005 ± 0.13
L10W	0.056 ± 0.057
L10K	0.1 ± 0.062

Variant	abundance fitness
L10H	-0.227 ± 0.18
L10G	0.032 ± 0.052
L10P	-0.028 ± 0.047
P60A	-0.051 ± 0.046
P60C	-0.154 ± 0.075
P60V	-0.331 ± 0.049
P60T	-0.558 ± 0.1
A47E	-0.001 ± 0.087
A47L	-0.18 ± 0.047
A47V	-0.192 ± 0.058
N48T	0.024 ± 0.052
N48A	-0.001 ± 0.046
N48Q	-0.028 ± 0.052
N48M	0.068 ± 0.071
N48P	-0.141 ± 0.054
L61R	-0.014 ± 0.042
L61H	-0.048 ± 0.11
L61S	0.12 ± 0.04
L61A	0.092 ± 0.044
L61V	0.091 ± 0.041
A28W	-0.381 ± 0.083
A28S	-0.321 ± 0.046
A28N	-0.459 ± 0.13
A28G	-0.314 ± 0.034

Variant	abundance fitness
A28R	-0.233 ± 0.039
A28F	-0.498 ± 0.11
A28L	-0.497 ± 0.058
Q19A	-0.008 ± 0.045
Q19F	-0.151 ± 0.069
Q19W	-0.295 ± 0.07
Q19P	-0.579 ± 0.062
Q19C	-0.22 ± 0.12
Q19Y	-0.224 ± 0.094
Q19T	-0.056 ± 0.048
R52G	0.02 ± 0.034
R52N	0.004 ± 0.08
R52D	0.156 ± 0.073
R52Y	-0.088 ± 0.097
R52Q	0.119 ± 0.058
R52M	0.064 ± 0.057
R52F	-0.071 ± 0.084
T36Y	-0.153 ± 0.069
T36I	-0.09 ± 0.062
T36L	-0.121 ± 0.035
T36M	-0.095 ± 0.062
T36V	-0.106 ± 0.053
T36F	-0.312 ± 0.11
